Test results published in patent US20230414619.

Molecular target: Flag-tagged METTL3, Q86U44
Sequence (Q86U44 whole entry): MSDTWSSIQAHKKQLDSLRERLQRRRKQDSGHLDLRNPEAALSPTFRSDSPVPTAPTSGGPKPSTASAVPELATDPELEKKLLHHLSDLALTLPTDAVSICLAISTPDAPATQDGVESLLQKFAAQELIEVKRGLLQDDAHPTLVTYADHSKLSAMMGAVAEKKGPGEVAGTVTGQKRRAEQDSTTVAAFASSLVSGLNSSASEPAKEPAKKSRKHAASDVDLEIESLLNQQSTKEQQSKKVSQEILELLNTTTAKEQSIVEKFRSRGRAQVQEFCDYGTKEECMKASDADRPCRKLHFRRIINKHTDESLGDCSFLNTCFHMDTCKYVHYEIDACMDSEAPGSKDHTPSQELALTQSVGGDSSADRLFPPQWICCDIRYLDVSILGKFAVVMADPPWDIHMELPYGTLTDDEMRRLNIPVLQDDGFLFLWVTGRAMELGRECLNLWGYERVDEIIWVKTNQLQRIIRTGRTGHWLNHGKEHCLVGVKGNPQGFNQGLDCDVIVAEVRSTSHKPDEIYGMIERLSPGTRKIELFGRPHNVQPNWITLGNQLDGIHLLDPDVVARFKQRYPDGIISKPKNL

B1: HA-tagged G9a (protein)
chain: MAAAAGAAAAAAAEGEAPAEMGALLLEKETRGATERVHGSLGDTPRSEETLPKATPDSLEPAGPSSPASVTVTVGDEGADTPVGATPLIGDESENLEGDGDLRGGRILLGHATKSFPSSPSKGGSCPSRAKMSMTGAGKSPPSVQSLAMRLLSMPGAQGAAAAGSEPPPATTSPEGQPKVHRARKTMSKPGNGQPPVPEKRPPEIQHFRMSDDVHSLGKVTSDLAKRRKLNSGGGLSEELGSARRSGEVTLTKGDPGSLEEWETVVGDDFSLYYDSYSVDERVDSDSKSEVEALTEQLSEEEEEEEEEEEEEEEEEEEEEEEEDEESGNQSDRSGSSGRRKAKKKWRKDSPWVKPSRKRRKREPPRAKEPRGVNGVGSSGPSEYMEVPLGSLELPSEGTLSPNHAGVSNDTSSLETERGFEELPLCSCRMEAPKIDRISERAGHKCMATESVDGELSGCNAAILKRETMRPSSRVALMVLCETHRARMVKHHCCPGCGYFCTAGTFLECHPDFRVAHRFHKACVSQLNGMVFCPHCGEDASEAQEVTIPRGDGVTPPAGTAAPAPPPLSQDVPGRADTSQPSARMRGHGEPRRPPCDPLADTIDSSGPSLTLPNGGCLSAVGLPLGPGREALEKALVIQESERRKKLRFHPRQLYLSVKQGELQKVILMLLDNLDPNFQSDQQSKRTPLHAAAQKGSVEICHVLLQAGANINAVDKQQRTPLMEAVVNNHLEVARYMVQRGGCVYSKEEDGSTCLHHAAKIGNLEMVSLLLSTGQVDVNAQDSGGWTPIIWAAEHKHIEVIRMLLTRGADVTLTDNEENICLHWASFTGSAAIAEVLLNARCDLHAVNYHGDTPLHIAARESYHDCVLLFLSRGANPELRNKEGDTAWDLTPERSDVWFALQLNRKLRLGVGNRAIRTEKIICRDVARGYENVPIPCVNGVDGEPCPEDYKYISENCETSTMNIDRNITHLQHCTCVDDCSSSNCLCGQLSIRCWYDKDGRLLQEFNKIEPPLIFECNQACSCWRNCKNRVVQSGIKVRLQLYRTAKMGWGVRALQTIPQGTFICEYVGELISDAEADVREDDSYLFDLDNKDGEVYCIDARYYGNISRFINHLCDPNIIPVRVFMLHQDLRFPRIAFFSSRDIRTGEELGFDYGDRFWDIKSKYFTCQCGSEKCKHSAEAIALEQSRLARLDPHPELLPELGSLPPVNT
LC-MS/MS of tryptic digests of Flag-METTL3: mono- or di-methyl-lysine (Kme) sites: four mono- or di-methyl-lysine (Kme) sites in the C-terminus of METTL3 | lysine methylation of immunoprecipitated Flag-METTL3, immunoblotting with an anti-mono- or di-methylysine antibody: METTL3 was methylated
